Laboratory results from the nanobody polyreactivity screen of Harvey et al. (2022).

Test: yeast display, Sf9 membrane polyspecificity reagent, FACS + sequencing; frameworks hold sequencing errors
Summary of the method: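 Polyreactivity labels are assigned by the sorting gate from which each nanobody was recovered. The gates were low and high (top ~1%), set on anti-HA fluorescence for expression and streptavidin fluorescence for reagent binding. Before sorting, galactose-induced (36–48 hours) yeast display cells were stained for 1 hour at 4 °C with 10% biotinylated, detergent-solubilized Sf9 membrane reagent.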

Sequence	polyreactivity (PSR sort gate)
QVQLVESGGGLVQAGGSLRLSCASSGRTFRVNAMVRYRHAPGKERELFAAITYTGGSTYYADSVKGRFTISRDNAKNTVYLQMNSLKPEDTAVYYCAARITSPRASSRGFYYWGQGTQVTVSS	high polyreactivity
QVQLVESGGGLVQAGGSLRLSCAASGRIFRPYAMGWYRQAPGKEREFVATIRFTTGRTYYADSVKGRFTISRDNAKNTVYLQMNSLKPEDTAVSYFAADFAFVNYAKISYTTHDYWGQGTQVTVSS	high polyreactivity
QVQLVESWGGLVQAGGSLRLSCDASGSTLYHNVMGWYRQAPGKERDLVASIDTGDSTNYADSVKGRFSISRDNAKNTVYLQMNSLKPEDTAVSYCNADSYTALNNRGYDYWGLGTQVTVSS	low polyreactivity
QVHLVESGGGLVQAGGSLRISCAAYGRTFRYYAMGCYRQAPAKDRELVAGISSSGDRTYFADSVKGRFTISRDTAKNTVYLQMNSLKPEDTAVYYCAADRGARGDYYWGQGTQVTVSS	high polyreactivity
QVQLVESGGGLVQAGGSLRLSCAASGNILSVNAMGWYRQAPGKERELVASIRSSTASTYYADSVKGRFTISRDNAKNTVYLQMNSLKPEDTAVYYCAARARYNRYDYWGQGTQVTVSS	high polyreactivity
QVQLVESGGGLVQAGGSLRLSCAASGRIFLVYAMGWYRQAPGKERELVATIRSGGRTNYADSVKGRFTISRDNAKNAVYLQMNSLKPEDTAVYYCNAPPYTSSDQDPAGDYEYWGQGTQVTVSS	high polyreactivity
QVQLVESGGGLVQAGGSLRLSCAASGFIFDRNAMGWYRQAPGKERELVAAISVSGGNTYYADSVKGRFTISRDNAKNTVYLQMNSLKPEDTAVYYCAASRYHSTRGDYWGQGTQVTVSS	high polyreactivity
QVHLVDSAGGLVQAGGNLSLSCEASGSIFRAYAMGWYRQAQGKERELVADISRSGGSTYYAESVKGRFTISRDNAKNTVYLQRNSLKPEDTAVSYGAAVFYLFSNLYGEYDYWGQGTQVTVSS	low polyreactivity
QVQLVESGGRLVQAGGSLRLSCAASGRIILRNAMGWYRQAPGKERELVAAISSSGGRKYYADSVKGRFTISRDNAKNTVYLQMNSLKPEDTAVYYCNARWHGSFDYWGQGTQVTVSS	low polyreactivity
QVQLVESGGGLVQAGGSLRLSCAATGRIFYGYTMGWYRQPPGKERELVAAINFNAGRTYYADSVKGRFTISRDNAKNTVYLQMNSLKPEDTAVYYCAAEGRFGRKYGYWGQGTQVTVSS	low polyreactivity
QVQLVESGGGLVQAGGSLRLSCAASGRTLAPYAMGWYRQAPGKERELVAISTSGGSTYYADSVKGRFTISRDNGKNTVYLQMNSRKPEDNAVYYCAADGNSTGVYWWFYGFDYWGQGTQVTVSS	low polyreactivity
QVQIVESGGGLVQAGGSLSLSCAASGFTLVGYAMGWYRQAPGKERELVAAISSGGRTKYADSVKGRFTISRDNAKNTVYLQMNSLKPEVTAVFYCAAPYNVRWRYGYWGQGTQVTVSS	high polyreactivity
QDQLVESGGGLVQAGGSLRLSCAASGSTSYRYSMGWYRQAPGKEREFVAAISWSGGSTYYADSVKGRFTISRDTAKNTVYLQMNSLKPEDTAVYYCAAVSRRGSARFDYWGQGTQVTVSS	high polyreactivity
QVQLVESGGGLVQAGGSLRLSCAASGITFYGYAMGWYRPAPGKERELVAVITSTARTNYADSVNGRFTISRDNAKNTVYLQMNSLKPEDTAVYYCAAVHSSYSFNYWGQGTQVTVSS	high polyreactivity
QVQLVESGGGLVQAGGSLRLSCAASGSIFLSYDMGWYRQAPGKERELVAAITQSGGSTYYADSVKGRFTISRDNAKNTVYLQMNSLKPEDTAVYYCAADYGYFPQETYPTYGYYYWGQGTQVTVSS	low polyreactivity
QVQLVESGGGLVQAGGSLRLSCAASGRIFYRNAMGWYRQAPGKERELVASITSGGRTNYADSVKGRFTISRDNAKNTVYLQMNSLKPEDTAVYYCAAPPPYSVRTFRFYYWGQGTQVTVSS	high polyreactivity
QVQLVESGGGLVQAGGSLRLSCAASGRIFGFYAMGWYRQAPGKERELVAVITYRDGRTYYADSVKGRFTISRDNAKNTVYLQMNSLKPQDTAVYYCAADRGVYDPGDYWGQGTQVTVSS	low polyreactivity
QVQLVESGGGLVQAGGSLRLSCAASGRIFSYYAMGWYRQAPGKERELVAAISKGGTSTYYADSVKGRFTISRDNSKNTVYLQMNRLKPEDTAVYYCAAARPKPVDYLGQGTQVTVSS	high polyreactivity
QVQLVESGGGLVQAGGSLRLSCAASGSICRLYAMGWYRPARGKEREFVAGITRRTGSTYYADSVKWRFTISRDNAKNTVYLQMTSLKPEETAVYYCAKRDARATPFGYWGLGTQVTVSS	high polyreactivity
QVQLVDSGGGLVQAGGSLRLSCAASGFTFGPYAMGWYRQAPGKERELGARITYRTGSTYYGDSVKGRFTISRDNAKNTVYLQINSLKPEDTAVYYCAAAYYCGQGTQVTVSS	high polyreactivity
QVQLVESGGALVQAGGSLRLSCAASGITFARNAMGWYRQAPGKERELVAVISTRGGRTYYADSVKGRFTISRDNAKNTVYLQMNSLKPEDTAVYYCAASPDPYWRRMDYWGQGTQVTVSS	high polyreactivity
QVQLVESGGGLVQAGGSLRLSCAASGRIFSGYAMGWYRQAPGKERELVATITSGGGTYYADSVKGRFTISRDNAKNTVYLQMNSLKPEDTAVYYCNAEKKGSFRKYNYWGQGTQVTVSS	low polyreactivity

Sequence	polyreactivity (PSR sort gate)
QVQLVESGGGLVQAGGSLRLSCAASGRIFYGYAMGWYRQAPGKERELVAGISYRGARTYYADSVKARFTISRDNAKNTVYLQMNSLKPEDTAVYNCNAVPYYPFAFGALDYSGQGTQVTVSS	high polyreactivity
QVQLVESGGGLVQAGGSLRLSCAASGFTFARYAMGWYRQAPGKERELVAAISRGTTTYYADSVKGRFTISRDNAKNTVYLQMNSLKPEDTAVYYCAARAVSEYFVVPFYYWGQGTQVTVSS	high polyreactivity
QVQLVESGGGLVQAGGSLRLSCAASGSTFNKYTMGWYRQAPGKERELVAAISSIGGSTYYADSVKGRFTISRDNAKNTVYLQMNSLKPEDTAVYYCAAPYPIGHDWGQGTQVTVSS	low polyreactivity
QVQLVESGGGLVQAGGSLRLSCAASGFIFIGNTMGWYRQAPGKDRELVAAIRWSGGSTYYADSVKGRFTISRDNAKNTVYLQMNSLKPEDTAVYYCAARRWSKTRYYYWGQGTQVTVSS	high polyreactivity
QVQLVESGGGLVQAGGSLRLSCAASGSIFSTNAIGGYRQAPGTQRELVAVITGIGGITYYADSVKGRFTISRDNAKKTVYLQRNSLKPDDTAVYYCADDPISEFSWGVKDRYDYWGQGTQVTVSS	low polyreactivity
QVQLVESGGGLVQAGGSLRLSCAASGSIVSAYVMGWYRQAPGKERELVAAITRSGGSTYYADSVKGRFTISRDNAKNTVYLQMNSLKPEDTAVYYCAADRRWFAYWFDYWGQGTQVTVSS	low polyreactivity
QVQLVESGGGLVQAGGSLRLSCAASGFIFQAYAMGWYRQAPGKERELVAAISSSGGSTYYADSVTGRFTISRDNAKNTVYLQMNSLKPEDTAVYYCAALRYVKMLAQAYEYWGQGTQVTVSS	high polyreactivity
QVQLVESGGGLVQAGGSLRLSCAASGRIFDQYAMAWYRQAPGKERELVATISGSGGSTYYADSVKGRFTISRDNAKNTVYLQMNSLKPEDTAVYYCAAVSVSSWYDYWGQGTQVTVSS	low polyreactivity
QVQLVESGGGLVQAGGSLRLSSAPSGFTFDENAMGWYRQAPGINYSGASTYYADSVKGRFTISRDNAKNTVYLQMNSLKPEDTAVYYCAAEVVAQMNYWGQGTQVTVSS	low polyreactivity
QVHLVESGGGLVQAGGSHRLSCAASGSIFWYNAMGWYRQAPGKERELVAGITYGGDTNYADSVKGRFTISRDNAKNTVYLQMNSLKPEDTAVYYCAKRWYGGRRYDYWGQGTQVTVSS	low polyreactivity
QVQLVESGGGLVQAGGSLRLSCAASVSIFQKNARGWYRQAPGKERELVAVITRGGTSTYYADSVKGRFTISRDNAKNTVYLQMNSLKPEDTAVYDCAADSGFDTAPYDFWGQGTQVTVSS	low polyreactivity
QVQLVESGGGLVQAGGSLRLSCAASGSTFFRYTMGWYRQAPGKERELVAAITSGGGTDYADSVKGRFTISRDNGKNTVYLQMNSLKPDDTAVYYCAVILSWRDYYLYWRGSWRDDYWGQGTQVSVSS	low polyreactivity
QVQLVDSGGGLFQAGGSHRLSFAASGSILRSNAMGWYRQAPGKERELVAVINGSGGRTYYADSVKGRFTISRDNAKNTVYLQMNSLKPEDTAVYYCNADPGGRYPRRGYAHEGDYWGQGTKVTVSS	low polyreactivity
QVQLQESRGGLVQEGGSLRLSSAASGNISPPAHMGWYRPAPGKQRELVASIGNGRTTNYADSVKGRFTISRHNANNTVYLQMYSLKPDETAVYYCSAVRYEYNPYDYWGQGTQVTVSS	low polyreactivity
QVQLVESGGGLVQAGGSLRLSCAASGSTFGNNAMGLYRQAPGKERELVASINWNGGSTYYADSVKGRFTISRDNAKITVYLQMNSLKPEDTAVYYCNARLYFVEGQDYYYWGQGTQVTVSS	low polyreactivity
QVQLVESGGGLVQAGGSLRLSCAASGRTFLPNDMGWSIQAPGKERELVAAITDSGGDTYYADSVKGRFTISRDNAKNTVYLQMNSLKPEDTAVYYCAADYYYYGSYYPVEYWGQGTQVTVSS	high polyreactivity
QVQLVESGGGLVQAGGSLRLSCAASGSIFRGYVRGWYRQAPGKERELVAAITWSTGSTYYADSVKGRFTISRDNAKNTVYLQMNSLKPEDTAVYYCAAVRRWAANRYQSGVTGNYWGQGTKVTVSS	high polyreactivity
QVQLVESGGGLVQAGGSLRLSCAASGFIFGWYAMGWYRQAPGKERELVAVIRSGGRTNYADSVKGRFTISRDNAKNTVYLQMNSLKPEDTAVYDCNAVGGRGYGGGFWGQGTQVTVSS	high polyreactivity
QVQLVESGGGLVQAGGSLRLSCAASGSTFSSYAMGWYRQAPGKERELVAAISSSGGTSTYADSVKGRFTISRDNAKNTVYLQMNSLKPEDTAVYYCAARQYRRLRDYRHDYWGQGTQVTVSS	high polyreactivity
QVQLVESGGGLVQAGGRLRLSCAASGSTFRYYAMGWYRQAPWKERELVAAISSTGTRTYYADSVKGRFTISRDNAKNTVYLQMNSLKPEDTAVSYCAADYVRYATRYDYWGQGTQVTVSS	high polyreactivity
QVQLVESGGGLVQAGGSLRLSCAASGSIFRGYAMGWYRQAPGKERELVAVIRRTSGSTYYADSVKGRFTISRDNAKNTVYLQMNSLKPEDTAVYYCNTLRHSSYPSYGYWGQGTQVTVSS	high polyreactivity
